These are literature values, as cited in PMC4355281.

In the data set the target is PKA RII (UniProt P13861).
PKA RII, sequence (P13861 2-404): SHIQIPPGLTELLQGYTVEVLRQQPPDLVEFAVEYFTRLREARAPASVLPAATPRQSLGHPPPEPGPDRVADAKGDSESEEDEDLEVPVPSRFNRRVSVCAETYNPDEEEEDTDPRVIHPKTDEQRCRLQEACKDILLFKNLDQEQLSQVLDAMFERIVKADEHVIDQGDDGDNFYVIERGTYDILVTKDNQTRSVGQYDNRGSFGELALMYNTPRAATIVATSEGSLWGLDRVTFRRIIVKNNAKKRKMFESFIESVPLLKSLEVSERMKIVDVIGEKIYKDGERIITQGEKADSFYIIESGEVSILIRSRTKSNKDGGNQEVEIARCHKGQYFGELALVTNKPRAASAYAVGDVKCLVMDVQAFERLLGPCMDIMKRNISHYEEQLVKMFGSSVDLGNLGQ

mAKAPβ, sequence (Q9WVC7 245-2314): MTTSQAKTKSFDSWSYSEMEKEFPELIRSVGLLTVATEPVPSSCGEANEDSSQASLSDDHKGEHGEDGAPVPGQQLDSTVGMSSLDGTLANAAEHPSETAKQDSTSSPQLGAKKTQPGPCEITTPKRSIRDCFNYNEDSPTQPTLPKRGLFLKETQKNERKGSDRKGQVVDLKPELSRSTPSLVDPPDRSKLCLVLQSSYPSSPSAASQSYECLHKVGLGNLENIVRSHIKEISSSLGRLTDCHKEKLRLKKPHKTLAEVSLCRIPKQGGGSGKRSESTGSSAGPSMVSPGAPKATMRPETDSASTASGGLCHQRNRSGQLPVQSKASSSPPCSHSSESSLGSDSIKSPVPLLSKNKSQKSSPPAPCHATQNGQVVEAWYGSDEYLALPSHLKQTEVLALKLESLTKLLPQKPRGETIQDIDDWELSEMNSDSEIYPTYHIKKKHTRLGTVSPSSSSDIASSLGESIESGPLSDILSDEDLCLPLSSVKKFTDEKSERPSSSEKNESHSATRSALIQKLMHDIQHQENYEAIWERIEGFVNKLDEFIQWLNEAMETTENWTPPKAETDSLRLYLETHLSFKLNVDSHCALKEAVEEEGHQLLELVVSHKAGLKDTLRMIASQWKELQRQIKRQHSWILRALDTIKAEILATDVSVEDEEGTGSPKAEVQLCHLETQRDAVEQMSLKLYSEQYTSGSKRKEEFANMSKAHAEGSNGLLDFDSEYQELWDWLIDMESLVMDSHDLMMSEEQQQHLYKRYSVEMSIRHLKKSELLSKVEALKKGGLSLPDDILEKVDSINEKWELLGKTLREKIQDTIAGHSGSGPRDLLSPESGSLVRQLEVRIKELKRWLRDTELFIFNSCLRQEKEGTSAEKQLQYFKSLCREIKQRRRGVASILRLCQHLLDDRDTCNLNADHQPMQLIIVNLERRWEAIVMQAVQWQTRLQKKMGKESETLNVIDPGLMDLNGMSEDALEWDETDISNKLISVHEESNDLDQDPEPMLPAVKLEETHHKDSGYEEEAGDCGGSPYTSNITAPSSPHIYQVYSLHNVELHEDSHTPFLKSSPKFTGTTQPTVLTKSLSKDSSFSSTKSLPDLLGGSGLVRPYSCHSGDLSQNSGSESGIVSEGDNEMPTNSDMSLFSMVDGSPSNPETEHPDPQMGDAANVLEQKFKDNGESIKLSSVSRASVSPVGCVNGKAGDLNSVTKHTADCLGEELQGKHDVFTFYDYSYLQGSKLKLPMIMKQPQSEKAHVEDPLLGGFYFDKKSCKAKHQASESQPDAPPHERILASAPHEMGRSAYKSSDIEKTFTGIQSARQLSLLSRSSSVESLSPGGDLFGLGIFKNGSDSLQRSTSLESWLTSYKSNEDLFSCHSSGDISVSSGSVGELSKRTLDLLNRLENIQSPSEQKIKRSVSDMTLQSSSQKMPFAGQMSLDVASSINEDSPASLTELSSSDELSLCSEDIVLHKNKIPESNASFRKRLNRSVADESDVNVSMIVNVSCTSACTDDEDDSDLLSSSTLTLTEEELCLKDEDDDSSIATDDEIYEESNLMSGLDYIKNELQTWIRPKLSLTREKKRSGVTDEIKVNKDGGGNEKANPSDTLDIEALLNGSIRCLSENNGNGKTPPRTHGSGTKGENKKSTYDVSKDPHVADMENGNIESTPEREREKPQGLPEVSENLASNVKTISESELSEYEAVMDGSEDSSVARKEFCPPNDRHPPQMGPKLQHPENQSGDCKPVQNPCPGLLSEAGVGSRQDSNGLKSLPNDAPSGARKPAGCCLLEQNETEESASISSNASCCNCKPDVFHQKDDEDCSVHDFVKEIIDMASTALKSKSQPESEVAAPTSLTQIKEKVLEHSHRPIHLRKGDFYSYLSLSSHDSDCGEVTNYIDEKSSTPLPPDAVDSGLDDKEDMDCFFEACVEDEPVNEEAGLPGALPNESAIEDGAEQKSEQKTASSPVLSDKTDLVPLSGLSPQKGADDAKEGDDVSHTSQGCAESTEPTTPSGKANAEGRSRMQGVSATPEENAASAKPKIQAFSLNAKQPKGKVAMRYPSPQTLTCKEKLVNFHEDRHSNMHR

On to mAKAPβ (from UniProt Q9WVC7), for which the Kd is 119 nM.
